Test results reported in patent US20260167731A1 (DOMAIN THERAPEUTICS, published 2026).

B1: chimeric anti-CCR8 mAb 2-17 (antibody, human IgG1, kappa)
heavy: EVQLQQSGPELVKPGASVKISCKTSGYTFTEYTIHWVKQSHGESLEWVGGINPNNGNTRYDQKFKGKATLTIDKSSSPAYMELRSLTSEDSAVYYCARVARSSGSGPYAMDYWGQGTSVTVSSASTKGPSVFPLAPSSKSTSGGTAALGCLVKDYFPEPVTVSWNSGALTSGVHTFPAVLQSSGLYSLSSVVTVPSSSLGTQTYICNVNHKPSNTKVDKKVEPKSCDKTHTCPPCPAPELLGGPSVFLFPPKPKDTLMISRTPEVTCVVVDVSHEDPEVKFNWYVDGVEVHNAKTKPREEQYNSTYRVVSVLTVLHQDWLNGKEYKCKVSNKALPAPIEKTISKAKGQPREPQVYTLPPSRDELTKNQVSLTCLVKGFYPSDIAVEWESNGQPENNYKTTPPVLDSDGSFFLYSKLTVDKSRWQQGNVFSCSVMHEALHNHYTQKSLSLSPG
light: DVVMTQTPLSLPVSLGDQASISCRCTQSLLHTNGDTYLHWYLQKPGQSPKLLIYKVSNRFSGVPDRFSGSGSGTDFTLKISRVEAEDLGVYFCSQSTHVPYTFGGGTKLEIKRTVAAPSVFIFPPSDEQLKSGTASVVCLLNNFYPREAKVQWKVDNALQSGNSQESVTEQDSKDSTYSLSSTLTLSKADYEKHKVYACEVTHQGLSSPVTKSFNRGEC
B2: hypofucosylated (low fucosylated) chimeric anti-CCR8 mAb 2-19 (antibody, human IgG1, kappa)
heavy: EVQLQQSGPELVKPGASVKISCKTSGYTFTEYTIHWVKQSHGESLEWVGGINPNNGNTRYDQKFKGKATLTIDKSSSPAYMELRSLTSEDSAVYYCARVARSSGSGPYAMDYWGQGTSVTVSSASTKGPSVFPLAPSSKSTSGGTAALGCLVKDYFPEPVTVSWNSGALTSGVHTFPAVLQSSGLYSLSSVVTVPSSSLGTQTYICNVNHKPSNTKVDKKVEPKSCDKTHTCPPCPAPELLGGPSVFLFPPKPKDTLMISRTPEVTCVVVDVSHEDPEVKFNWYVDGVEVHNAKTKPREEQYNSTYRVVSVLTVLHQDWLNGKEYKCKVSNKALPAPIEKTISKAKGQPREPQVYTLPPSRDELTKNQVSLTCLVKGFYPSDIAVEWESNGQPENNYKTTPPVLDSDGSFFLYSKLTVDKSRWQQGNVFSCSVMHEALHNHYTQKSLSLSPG
light: B1 light
modifications: hypofucosylated Fc glycan

Target: human CCR8 (human, UniProt P51685 1-355)
Assay: cell-based or functional assay

Binder | ADCC % Max lysis, HUT78 targets, NK cells Donor 3 | ADCC % Max lysis, HUT78 targets, NK cells Donor 4 | ADCC EC50, HUT78 targets, NK cells Donor 3 | ADCC EC50, HUT78 targets, NK cells Donor 4
B1 | 14% | 15% | 0.793 nM | 1.52 nM
B2 | 29% | 29% | 0.195 nM | 0.282 nM
